The results in this text go back to article PMC3010111.

Common to all, as to experiment: purified protein
Substrate in series [1]: N[C@@H](CCO)C(=O)O
As to conditions: 25°C, 37 nM ThrB.

Substrate in series [2]: N[C@H](C(=O)O)[C@H](O)CO
Substrate in series [3]: O=C(O)C(=O)COP(=O)(O)O
As to conditions: 50 mM Tris–HCl pH 7.4, 37°C, MalE–YeaB 5.7 μM.

Substrate in series [4]: O=C(O)[C@H](O)[C@H](O)COP(=O)(O)O
The note with it: 2 mM NAD+, 100 mM Tris–HCl pH 7.5, 25°C, 2 μM PdxA.

Substrate in series [5]: C[C@@H](O)[C@H](N)C(=O)O
As to conditions: 0.1 M Tris–HCl pH 8.0, 25°C, 1.25 μM LtaE.

Substrate in series [6]: C[C@H](O)[C@H](N)C(=O)O
As to conditions: 0.1 M Tris–HCl pH 8.0, 25°C, 62.5 nM LtaE.

Setting [7] is: 0.1 M Tris–HCl pH 8.0, 25°C, 1 μM LtaE.

B1: ThrB (homoserine kinase) (Escherichia coli K-12) (protein)
chain: MVKVYAPASSANMSVGFDVLGAAVTPVDGALLGDVVTVEAAETFSLNNLGRFADKLPSEPRENIVYQCWERFCQELGKQIPVAMTLEKNMPIGSGLGSSACSVVAALMAMNEHCGKPLNDTRLLALMGELEGRISGSIHYDNVAPCFLGGMQLMIEENDIISQQVPGFDEWLWVLAYPGIKVSTAEARAILPAQYRRQDCIAHGRHLAGFIHACYSRQPELAAKLMKDVIAEPYRERLLPGFRQARQAVAEIGAVASGISGSGPTLFALCDKPETAQRVADWLGKNYLQNQEGFVHICRLDTAGARVLEN
For the protein B1, in series [1], the Km (in general, the substrate concentration at which the rate is half of its maximum) was 120 ± 20 µM; the kcat – broadly, the number of substrate molecules converted per active site and unit of time at saturation – came to 46 ± 4 s⁻¹; the kcat/Km (in general, the second-order rate constant that governs catalysis at low substrate concentration) came to 380000 ± 70000 M⁻¹ s⁻¹. In series [2] (25°C, 0.18 μM ThrB), the Km turned out to be 2000 ± 100 µM, the kcat amounted to 9.7 ± 0.8 s⁻¹ and the kcat/Km stood at 4800 ± 600 M⁻¹ s⁻¹.

B2: MalE–YeaB (YeaB, also known as NudL) (Escherichia coli K-12) (protein)
chain: MEYRSLTLDDFLSRFQLLRPQINRETLNHRQAAVLIPIVRRPQPGLLLTQRSIHLRKHAGQVAFPGGAVDDTDASAIAAALREAEEEVAIPPSAVEVIGVLPPVDSVTGYQVTPVVGIIPPDLPYRASEDEVSAVFEMPLAQALHLGRYHPLDIYRRGDSHRVWLSWYEQYFVWGMTAGIIRELALQIGVKP
Turning to B2, in series [3], the kcat came to 5.7e-05 ± 7e-06 s⁻¹ and the kcat/Km is more than 0.028 M⁻¹ s⁻¹.

B3: PdxA (4-hydroxy-L-threonine dehydrogenase) (Escherichia coli K-12) (protein)
chain: MVKTQRVVITPGEPAGIGPDLVVQLAQREWPVELVVCADATLLTNRAAMLGLPLTLRPYSPNSPAQPQTAGTLTLLPVALRAPVTAGQLAVENGHYVVETLARACDGCLNGEFAALITGPVHKGVINDAGIPFTGHTEFFEERSQAKKVVMMLATEELRVALATTHLPLRDIADAITPALLHEVIAILHHDLRTKFGIAEPRILVCGLNPHAGEGGHMGTEEIDTIIPVLNELRAQGMKLNGPLPADTLFQPKYLDNADAVLAMYHDQGLPVLKYQGFGRGVNITLGLPFIRTSVDHGTALELAGRGKADVGSFITALNLAIKMIVNTQ
As to B3, in series [4], the Km was found to be 150 ± 13 µM and the kcat was 0.020 ± 0.002 s⁻¹.

B4: LtaE (low-specificity threonine aldolase) (Escherichia coli K-12) (protein)
chain: MIDLRSDTVTRPSRAMLEAMMAAPVGDDVYGDDPTVNALQDYAAELSGKEAAIFLPTGTQANLVALLSHCERGEEYIVGQAAHNYLFEAGGAAVLGSIQPQPIDAAADGTLPLDKVAMKIKPDDIHFARTKLLSLENTHNGKVLPREYLKEAWEFTRERNLALHVDGARIFNAVVAYGCELKEITQYCDSFTICLSKGLGTPVGSLLVGNRDYIKRAIRWRKMTGGGMRQSGILAAAGIYALKNNVARLQEDHDNAAWMAEQLREAGADVMRQDTNMLFVRVGEENAAALGEYMKARNVLINASPIVRLVTHLDVSREQLAEVAAHWRAFLAR
For B4, the figures for the Km in series [5], in series [2] (setting [7]) and in series [6] were 4000 ± 200 µM, 27 ± 2 µM and 52 ± 4 µM, respectively. The kcat in series [5] was 1.1 ± 0.1 s⁻¹; in series [2] (setting [7]), 1.44 ± 0.03 s⁻¹; in series [6], 3.2 ± 0.2 s⁻¹. The values for the kcat/Km in series [5], in series [2] (setting [7]) and in series [6] were 280 ± 20 M⁻¹ s⁻¹, 53000 ± 4000 M⁻¹ s⁻¹ and 62000 ± 5000 M⁻¹ s⁻¹, respectively.
